In patent US20230382979A1 (ADAPTIVE BIOTECHNOLOGIES, published 2023):
Numbering of substitutions follows the chain as printed.

B1: antibody 2892 (antibody, V domains shown)
VH: QVQLVQSGAEVKKPGSSVKVSCKASGDAFISYAISWVRQAPGQGLEWMGGIIPIFGTANYAQKFQGRVTISADESTSTAYMELSRLRSEDTAVYYCARGGPEPYGSGSGYTPRYNWFDPWGQGTLVTVSS
VL: QSALTQPRSVSGSPGQSVTISCTGTSSDVGGYNYVSWYQQHPGKAPKFMIYDVNRRPSGVPDRFSGSKSGNTASLTISGLQAEDEADYYCCSYAGTYTWVFGGGTKLTVL
B2: antibody 2050 (antibody, V domains shown)
VH: QVQLVQSGAEVKKPGASVKVPCKVSGYTFTDHFIHWVRQAPGQGLEWMGWISPNSGGRNYTQKFQGRVTLTRDTAITTVHMDLSSLTPDDTAVYYCARDVRWAQLQGGFDLWGQGTMVTVSS
VL: QSALTQPASVSGSPGQSITISCTGTSSDVGSYNLVSWYQQHPGKAPKLMIYEVSKRPSGVSNRFSGSKSGNTASLTISGLQADDEADYYCCSYAGDNNFLFGGGTSLTVL
B3: antibody 2729 (antibody, V domains shown)
VH: QVTLKESGPVLVKPTETLTLTCTVSGFSLSNARMGVSWIRQPPGKALEWLAHIFSNDEKSYSTYLKSRLTISKDSSKSQVVLTMTIMDPVDTATYYCARTAGRYSSRWGHYYYYMDVWGKGTTVTVSS
VL: NFMLTQPHSVSESPGKTVTISCTGSNGSIASNFMQWYQQRPGSAPTIVIYEDNQRPSGVPDRFSGSIDGSSNSASLTISGLKTEDEADYYCQSYDSSDSDLGVFGGGTKLTVL
B4: antibody 2075 (antibody, V domains shown)
VH: QVQLVQSGAEVKKPGSSVKVSCTASGGTFSIYAFSWVRQAPGQGLEWMGGIIPISGTAGYAQKFQGRVTITADESTSTAYMELSSLRSEDTAIYYCARKYRYCSGSRCYTYFDYWGQGTLVTVSS
VL: DIQMTQSPSSLSASVGDRVTITCRASQSISSFLNWYQQKPGKAPKLLIYAASSLQSGVPSRFSGSGSGTDFTLTISSLQPEDSATYYCQQSYSTITFGQGTRLEIK
B5: antibody 2020 (antibody, V domains shown)
VH: QVQLVQSGAEVKKPGASVKVSCKASGYTFTDYFMHWVRQAPGQGLEWMGWVNPLSGGTNFAQKFQGRVTMTSDTSITTVYMELSRLRSDDTAVYYCARDPPLYSSTYGMDVWGQGTTVTVSS
VL: QSALTQPASVSGSPGQSITISCTGTSSDVGAYNYVSWYQQHPGKAPKLMIYDVSDRPSGVSNRFSGSKSGNTASLTISGLQAEDEADYYCSSYTISSSVVFGGGTKLTVL
B6: antibody 980 (antibody, V domains shown)
VH: QVQLVESGGGVVQPGRSLRLSCAASGFTFSRYGMHWVRQAPGKGLEWVALISSGGSNKYYADSVKGRFTISRDNSKNTLYLEMNSLRAEDTAVYYCAKDAIYDYIWGAYRENWFDPWGQGTLVTVSS
VL: DIQMTQSPSSLSASVGDRVTITCRASQSISNYLNWYQQKPGKAPNLLIYAASSLQSGVPSRFSGSGSGTDFTLTISSLQPEDFATYYCQQTSSPPLTFGQGTKVEIK
B7: antibody 4441 (antibody, V domains shown)
VH: EVQLVESGGGLVQPGRSLRLSCAASGLTFEDYAMHWVRQPPGKGLEWVSGVSWNSGTIGYADSVKGRFTISRDNAKNSLYLHMRSLGAEDTAMYYCAKDMGGRFSFFSLENDAFDIWGQGTMVIVSS
VL: SYELTQPPSVSVSPGQTARITCSGDALPKQSTYWYQQKPGQAPVLVIYKDIERPSGIPERFSGSSSGTTVTLTISGVQAEDEADYYCQSADSSDTYVFGTGTKVTVL
B8: antibody 2706 (antibody, V domains shown)
VH: QVQLVQSGAEVKKPGSSVKVSCKASGGTFSTYAISWVRQAPGQGLEWMGGIIPLFATANYAQNFQGRVTITADKSTSTAYMELSSLRSEDTAVYYCASVRLHLEELSLSHQGDYYYGLDVWGQGTTVTVSS
VL: DIQMTQSPSSLSASVADRVTITCQASQDISHYLNWYQQKPGKAPQLLIYDASKLETGAPSRFSGSGSGTDFTFTISSLQPEDIATYYCQQYDHLPLTFGGGSKVEIK
B9: antibody 1213 (antibody, V domains shown)
VH: QMQLVQSGAEVKKTGSSVKVSCEASENTFTNRYLHWVRQAPGQALEWMGWITPFQGNTHYAQKFQDRVTITRDRSMNTVYMELSSLRSEDTAIYYCASGGQYGPGSYYFEFWGQGTLVTVSS
VL: EIVMTQSPATLSVSPGERATLSCRASQSIRNNLAWYRQKPGQAPRLLIYGASTRAAGVPARFSGSGSGTEFTLTISSLQSEDFAVYYCQQYINWPPLTFGGGTKVEIK
B10: antibody 1227 (antibody, V domains shown)
VH: B9 VH with E26G, N27Y, H59N, R74M, I93K, P104A, F109L, F111D
VL: B9 VL with I29V, N31S, A56T, K104R
B11: antibody 935 (antibody, V domains shown)
VH: EVQLVESGGGLVQPGGSLRLSCAASGFTVSSNYMSWVRQAPGKGLEWVSVIYSGGSTFYADSVKGRFTISRDNSRNTLYLQMNSLRAEDTAVYYCARDWGEFFFDFWGQGALVTVSS
VL: EIVLTQSPGTLSLSPGERATLSCRASQTISSSYLAWYQQKPGQAPRLLISGASSRATGIPDRFSGSGSGTDFTLTISRLEPEDFAVYYCQQYGSSPRTFGQGTNVEIK
B12: antibody 3086 (antibody, V domains shown)
VH: QVQLQESGPGLVKPSETLSLTCTVSGGSISGHYWSWIRQPPGKGLEWIGYIYYSGSTNYNPSLKSRVTISVDTSVNQFSLKLSSVTAADTAVYYCARQEARDAVGNYFFDSWGQGTLVTVSS
VL: QSALTQPASVSGSPGQSITISCSGTSSDIGSYDLVSWYQQHPGKAPKLLIYDVTKRPSGVSHRFSGSKSGNTASLTISGLQGEDEADYYCCSYVHFSTWVFGGGTKLTVL
B13: antibody 1679 (antibody, V domains shown)
VH: QITLKESGPTLVKPTQTLTLTCTFSGFSLSTVGVGVAWIRQPPGKALEWLALIYWDDDKRYSPSLKSRLTITKDTSKNHVVLTMTNMDPVDTATYYCAHHIIAALVDVWGKGTTVTVSS
VL: QSALTQPASVSGSPGQSITISCTGTSSDVGGNNYVSWYQHHPGEAPKLMIYEVSNRPSGVSNRFSGSKSGNTASLTISGLQAEDEADYYCSSYTTSSTLVVFGGGSKLTVL
B14: antibody 1231 (antibody, V domains shown)
VH: QVQLVQSGSELKKPGASVKVSCTGYGYTFTSYAMNWVRQAPGQGLEWMGWINTNTGHPAYAQGFTGRFVFSLDSSVSTAYLQISSLKAEDTAVYYCATTIRAGGYFDFWGQGTLVTVSS
VL: DIQLTQSPSFLSASVGDRVTITCRASQGISSYLAWFQQKPGKAPKLLIYVVSILQSGVPSRFSGSGSGTEFTLTISSLQPEDFATYYCQQLNSYPYTFGQGTKLEIK
B15: antibody 2619 (antibody, V domains shown)
VH: EVQLVESGGGLVQPGRSLRLSCAASGFTFDDYAMHWVRQAPGKGLEWVSGISWNSGSIGYADSVKGRFTLSRDNAKNSLFLQMDSLRAEDTALYYCAKDVSYRSGSYYRFWGGSGSWGQGTLVTVSS
VL: B6 VL with Q27L, S30R, N31S, A43P, N45K, T91S, S92Y, P94T, Q100G
B16: antibody 1864 (antibody, V domains shown)
VH: QVQLQESGPGLVKPSETLSLTCTVSGGSINYYYWSWIRQPPGKGLEWIGFIYSSGTTNYNPSLKSRVTMSVDSSKSQFSLKLSSVTAADSAVYYCARHSRSCTNGVCQTYYYYALDVWGHGTTVTVSS
VL: QSVLTQPPSVSGAPGQRVTISCTGSSSNIGAGYDVHWYQQLPGTAPKLLIYGNSNRPSGVPDRFSASKSGTSASLAIAGLQPEDEGDYYCQSYDGSLSESGVFGGGTRLTVL
B17: antibody 1851 (antibody, V domains shown)
VH: B16 VH with P40S
VL: B16 VL
B18: antibody 1870 (antibody, V domains shown)
VH: B16 VH with T23S, S73T, S76N
VL: B16 VL with P82A
B19: antibody 1826 (antibody, V domains shown)
VH: QVQLQESGPGLVKPSETLSLTCSVTGGSTNYYYWSWIRQPPGKGLEWIGYIYYSGTTNYNPSLKDRVTMSVDKSKTQLSLKLNSVTAADTAVYYCARHARHCTNGVCQTYYYYGLDVWGLGTTVAVSA
VL: QSVLTQPPSVSAAPGQRVTISCSGSSSNIGAGYDVHWYQHLPGTAPKLLIYNNNNRPSGVPDRFSASRSGTSASLAITGVQTEDEADYYCQSFDGRLSESGVFGGGTKLTVL

Each binder was assayed against S2 subunit of the SARS-CoV-2 spike protein, WA01/2020 strain (SARS-CoV-2, WA01/2020 strain, UniProt P0DTC2 686-1213) (assay: ELISA, antibody at 0.1 ug/mL).

Row | Binder | binding result
1 | B1 | no binding (tested: 0.1 ug/mL)
2 | B2 | no binding (tested: 0.1 ug/mL)
3 | B3 | no binding (tested: 0.1 ug/mL)
4 | B4 | no binding (tested: 0.1 ug/mL)
5 | B5 | no binding (tested: 0.1 ug/mL)
6 | B6 | no binding (tested: 0.1 ug/mL)
7 | B7 | no binding (tested: 0.1 ug/mL)
8 | B8 | no binding (tested: 0.1 ug/mL)

The binders below were run against T1, SARS-CoV-2 nucleocapsid (N) protein (SARS-CoV-2, UniProt P0DTC9 1-419) (assay: ELISA, antibody at 0.1 ug/mL).

Row | Binder | binding result
9 | B1 | no binding (tested: 0.1 ug/mL)
10 | B2 | no binding (tested: 0.1 ug/mL)
11 | B3 | no binding (tested: 0.1 ug/mL)
12 | B4 | no binding (tested: 0.1 ug/mL)
13 | B5 | no binding (tested: 0.1 ug/mL)
14 | B6 | no binding (tested: 0.1 ug/mL)
15 | B7 | no binding (tested: 0.1 ug/mL)
16 | B8 | no binding (tested: 0.1 ug/mL)

These binders were tested against SARS-CoV-2 spike protein, WA1/2020, borne on lentiviral pseudovirus (SARS-CoV-2, WA01/2020 strain, UniProt P0DTC2 14-1273) (assay: cell-based or functional assay).

Row | Binder | Pseudo Neut, WA1/2020 IC50 (pM)
17 | B9 | 90600
18 | B10 | 116000
19 | B11 | 420
20 | B12 | 82
21 | B1 | 65
22 | B2 | 427
23 | B3 | 584
24 | B13 | > 163
25 | B4 | 783
26 | B14 | 95000
27 | B5 | 214
28 | B6 | 952
29 | B15 | 213
30 | B7 | 276
31 | B8 | 795

Each binder was assayed against T1, SARS-CoV-2 nucleocapsid (N) protein (assay: ELISA screening, antibody concentration not given).

Row | Binder | binding result
32 | B16 | no binding (tested: not printed)
33 | B17 | no binding (tested: not printed)
34 | B18 | no binding (tested: not printed)
35 | B19 | no binding (tested: not printed)

Each binder was assayed against S1 subunit of the SARS-CoV-2 spike protein, WA01/2020 strain (SARS-CoV-2, WA01/2020 strain, UniProt P0DTC2 16-685) (assay: ELISA screening, antibody concentration not given).

Row | Binder | binding result
36 | B16 | no binding (tested: not printed)
37 | B17 | no binding (tested: not printed)
38 | B18 | no binding (tested: not printed)
39 | B19 | no binding (tested: not printed)
